Measurements published in US20160039936A1, “FIBROBLAST GROWTH FACTOR RECEPTOR INHIBITION FOR THE TREATMENT OF DISEASE” (UNIVERSITY OF MIAMI, priority 2011, published 2016).

What was measured:
[1] = tested on: FGFR; conditions: Mohammadi et al. 1998; Grand et al. 2004; cited from earlier work
[2] = target: T1, FGFR4 (Rattus norvegicus, UniProt Q498D6); assay: Binding of PLCγ to FGFR4 in NRVM (immunoprecipitation); type: cell-based; conditions: 30 minutes, vs PBS or FGF2
T1 construct: endogenous in cells; host or cells: isolated neonatal rat ventricular myocytes (NRVM)
Description: HEK293 cells in 10 cm-dishes were treated with growth factors for 30 minutes, cells were scraped using 1 ml IP buffer (50 mM Tris-HCl pH7.5, 150 mM NaCl, 5 mM MgCl2, 2 mM EGTA, 1% Triton X-100, 5% Glycerol, protease and phosphatase inhibitors), and protein lysates were prepared as described above. V5-tagged proteins were immunoprecipitated using 25 μl of anti-V5 agarose beads (Sigma-Aldrich). After 5 washes in IP buffer, proteins were eluted in 100 μl of sample buffer and analyzed by SDS-PAGE and immunoblotting. For endogenous immunoprecipitation studies from NRVM, cells in 10cm-dishes were treated with growth factors for 30 minutes. Some cells were pre-treated with FGFR4 blocking antibody at 10 μg/ml for 1 hour (human monoclonal, U3-11; U3Pharma). […] We added 50 μl of a 1:1 mix of Protein A on sepharose beads and Protein G on agarose beads that were previously equilibrated in RIPA buffer, followed by incubation at 4° C. under rotation for 2 hours, protein elution in sample buffer, and SDS-PAGE and Western blot analyses.

[3] = tested on: C57BL/6 mice; assay: Intra-myocardial injection of FGF23 in mice; type: in vivo, mouse; conditions: 7.5 ng FGF23 intra-myocardial
Description: Twelve-week old adult C57BL/6 mice (Jackson Laboratories) underwent cardiac surgery using a standard operative procedure that has been described previously for intra-myocardial implantation of stem cells (Amado et al., Proc. Natl. Acad. Sci. U.S.A., 102(32):11474-11479, 2005). All procedures were performed by a single investigator who was blinded to the specific treatment group. All protocols and experimental procedures were approved by the Institutional Animal Care and Use Committee at the University of Miami Miller School of Medicine. Briefly, mice were anesthetized with isoflurane and an incision was made between the 3rd and 4th rib to reveal a cardiac window. Three injections of purified recombinant murine FGF23 in PBS or PBS alone were delivered into the free wall of the left ventricle via a 30-gauge needle attached to a standing Hamilton syringe. At each of the three sites, 10 μl were injected for a total of 30 μl containing a total of 7.5 ng FGF23. Cardiac function was evaluated by Vevo 770 imaging system (Visual Sonics, Toronto, Canada) at baseline and 2 weeks after surgery. Long and short axis 2D parasternal views and short axis M mode views were recorded under general anesthesia with isoflurane inhalation delivered through a nose mask. The heart rate was maintained above 400 bpm with controlled body temperature set to 37° C. At 7- and 14-days post-injection, animals were sacrificed, hearts were isolated, perfused ex-vivo (6 ml of 10% Formalin with 4 ml of 20 mM KCl), stored overnight in 10% formalin for fixation, and then serially sectioned (7 μm slices) and stained with hematoxylin and eosin. Age-matched untreated animals were sacrificed at 14 weeks of life. […]
(§1) Short-axis cardiac sections were used to quantify myocardial thickness by measuring the distance from the inner to the outer myocardial zone at the mid-chamber zone. […] Since klothro-ablated kl/kl mice display severe growth retardation with small hearts (Kuro-o et al., Nature, 390(6655):45-51, 1997), we also measured relative wall thickness calculated as two times the anterior wall thickness divided by left ventricular internal diameter. Total RNA was isolated from flash frozen hearts using TRIzol (Invitrogen) and RT-PCR analyses were performed as described above.
(§2) We measured cross-sectional surface area of cardiac myocytes in paraffin-embedded short-axis sections of the heart. Briefly, 7 μm thick sections were deparaffinized according to our established protocols. To specifically label cardiac myocytes, we used mouse monoclonal MF20 antibody against sarcomeric myosin at 1:200 and Cy5-conjugated donkey-anti mouse (Invitrogen) as secondary antibody at 1:400. To visualize nuclei, fixed tissue was incubated with 4′,6-diamidino-2-phenylindole (DAPI; 400 ng/ml in PBS) for 5 minutes. To visualize cellular borders, fixed tissue was incubated with wheat germ agglutinin (WGA) conjugated to Alexa Fluor 555 (Invitrogen) at 1 mg/ml in PBS containing 10 mM sodium azide. Immunofluorescence images were taken on a Leica TCS-SP5 confocal microscope with a 63× oil objective. Leica AF6000 fluorescence software was used to quantify cross-sectional cell surface area of 25 cells per field at four fields along the mid-chamber free wall based on WGA-positive staining.
Blood was collected at sacrifice via cardiac puncture and was centrifuged at 4° C. and 14,000 rpm for 15 minutes. Plasma supernatants were collected, stored at −80° C., and subsequently analyzed in batches for FGF23 (C-terminal mouse assay, Immutopics), PTH (1-84 assay, Alpco Immunoassays), and phosphate, calcium, BUN and creatinine (Ortho Vitros 250 Chemistry Analyzer).

[4] = tested on: C57BL/6 mice; assay: Intravenous injection of FGFs (with or without Fc-FGFR decoy receptors) in mice; type: in vivo, mouse; conditions: FGF23 40 μg/kg i.v. twice daily 5 days
Description: Twelve-week old adult C57BL/6 mice underwent tail vein injections using standard protocols as previously described for the systemic delivery of plasmid DNA (Faul et al., 2008). Briefly, mice were placed in a restrainer and 40 μg/kg of FGF23 dissolved in 200 μl of PBS were injected into the tail vein of 5 mice twice daily with eight hours in between injections for 5 consecutive days. Four mice underwent the same injection schedule using 200 μl of PBS alone as negative control. On the morning of the 6th day, 16 hours after the final tail vein injections, animals were sacrificed and the hearts were isolated and prepared using the same protocol as described above.
as §1, §2
Next, we wanted to determine the effectiveness of this FGFR trapping system on FGF-induced LVH in mice. To our knowledge, Fc decoy receptors have not yet been used to study FGFR function in vivo in any biological context, but served as valuable tools to analyze the functions of other receptor tyrosine kinases, like receptors for vascular endothelial growth factor (VEGFR) and their role in tumor growth and metastasis. We used similar Fc-FGFR concentrations as described for Fc-VEGFR in animal models of cancer (Lin J et al., Cancer Res. 2005; 65(15):6901-9).

[5] = tested on: HEK293 cells; assay: FGF-FGFR-dependent signaling in HEK293 cells (Western blot, immunoprecipitation); type: cell-based; conditions: HEK293 expressing wild-type FGFR4, within 6 hours

T1 sequence (Q498D6 17-800): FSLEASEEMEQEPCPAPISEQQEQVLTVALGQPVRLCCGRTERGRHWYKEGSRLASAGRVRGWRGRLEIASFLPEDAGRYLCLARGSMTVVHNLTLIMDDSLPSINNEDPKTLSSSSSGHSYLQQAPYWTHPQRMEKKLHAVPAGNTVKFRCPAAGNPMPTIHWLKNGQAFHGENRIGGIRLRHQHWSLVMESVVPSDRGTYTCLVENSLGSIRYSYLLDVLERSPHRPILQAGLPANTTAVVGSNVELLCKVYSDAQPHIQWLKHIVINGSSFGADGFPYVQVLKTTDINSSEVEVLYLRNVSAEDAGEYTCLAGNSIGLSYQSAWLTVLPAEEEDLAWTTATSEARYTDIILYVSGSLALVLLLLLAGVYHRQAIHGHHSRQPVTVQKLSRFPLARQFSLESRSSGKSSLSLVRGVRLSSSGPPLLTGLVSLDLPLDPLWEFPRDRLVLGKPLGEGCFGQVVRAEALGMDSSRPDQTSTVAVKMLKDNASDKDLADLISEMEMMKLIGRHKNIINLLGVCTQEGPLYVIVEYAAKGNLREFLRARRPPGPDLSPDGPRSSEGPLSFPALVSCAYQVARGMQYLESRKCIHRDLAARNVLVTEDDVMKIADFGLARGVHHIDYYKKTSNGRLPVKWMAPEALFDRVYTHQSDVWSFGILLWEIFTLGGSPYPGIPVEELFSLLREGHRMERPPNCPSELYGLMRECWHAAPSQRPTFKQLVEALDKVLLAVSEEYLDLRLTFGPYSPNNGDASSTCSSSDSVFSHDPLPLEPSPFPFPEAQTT

## CCN(CC)CCCCNc1ncc2cc(-c3cc(OC)cc(OC)c3)c(NC(=O)NC(C)(C)C)nc2n1 [PD173074]
[1]
  phosphorylation of FGFR3 and FGFR4: inhibits

B1: FGF23: recombinant mouse FGF23, 6His-tagged Tyr25-Val251 (Arg179Gln) (R&D Systems) (protein)
chain: YPDTSPLLGSNWGSLTHLYTATARTSYHLQIHRDGHVDGTPHQTIYSALMITSEDAGSVVITGAMTRRFLCMDLHGNIFGSLHFSPENCKFRQWTLENGYDVYLSQKHHYLVSLGRAKRIFQPGTNPPPFSQFLARRNEVPLLHFYTVRPRRHTQSAEDPPERDPLNVLKPRPRATPVPVSCSRELPSAEEGGPAASDPLGVLRRGRGDARGGAGGADRCRPFPRFV
modifications: left off: small tags and cut ends
[2]
  levels of co-purified FGFR4 in anti-PLCγ eluates: elevated
[3]
  cross-sectional surface area of cardiac myocytes (WGA): significant increase
  expression of β-MHC, ANP and BNP: increase
  α-MHC and MCAD mRNA levels: decrease
[3]; day 7, vs vehicle
  thickness of the left ventricular free wall: significant increase
[3]; day 14
  left ventricular internal diameter in diastole: significantly decreased
  relative wall thickness: increased
  thickness of the left ventricular free wall: increased further
[3]; day 14, vs vehicle
  ratio of heart weight to tibial length: significantly increased
  thickness of the interventricular septum: increased significantly
[3]; days 7 and 14
  levels of FGF23, phosphate, calcium, PTH, BUN, or creatinine vs vehicle: no significant differences
[3]; echocardiography over time
  ejection fraction: no change
[4]; vs vehicle
  cardiac weight/tibial length: significantly increased
  cross-sectional surface area of individual cardiac myocytes: increased
  expression of α-MHC and MCAD mRNA levels: decreased expression
  expression of β-MHC, ANP and BNP: increased expression
  left ventricular wall thickness: increased
[4]; 16 hours after final injection, vs PBS
  FGF23 levels at the time of sacrifice: significantly increased
[5]
  RCAN1-4 levels: increases
